Assay results: article PMC3588154

Target: human von Willebrand factor (VWF) (human) (UniProt P04275)
Assay: SPR

Kd [nM]	koff [s⁻¹]	kon [M⁻¹ s⁻¹]	Substance
0.34	0.00089	2.6e+06	recombinant factor VIII–Fc fusion protein (rFVIIIFc) (from UniProt P00451 1668-2351)
0.26	0.00087	3.4e+06	recombinant B-domain-deleted FVIII (rBDD FVIII) (from UniProt P00451 1668-2351) (natural protein)
